This note sets out measurements from the DeepSol protein solubility set.

The data set is described as follows: soluble on expression in E. coli; label from the status in PepcDB or PDB records.
Consider “MESTVTTQEEKLAYQQSVEMASNYANQFDADMKANLAIARTISTTMESYETADRDEALLILENLLRDNPHLLGTYVAFEPDAFDGKDAEYTNSPAHDGTGRFVPYWNKMNGTASVAPLLHYDSSDYYQLPKATEKDVLTEPYFYEGVFMVSYVSPIMKEGEFAGIGGVDVSLEYVDEVVSKVRTFDTGYAFMVSNSGVILSHPTHKDWIGKKDLYDFGGEELEKASRDIKNGIGGHLETADPTTGKTVILFYEPVETGDFAFVLVVPKEEMLAGVADLRERLLEHHHHHH”, for which the “soluble on expression in E. coli” value was “soluble”.
The result for “MSLKKAAIITIGSELLEGLILNKNAQFLCQELKNLGYRVVKVSTVGDDLISISEEVKTLLLKVDLLILTGGLGPTQDDLTRDAVAKVLNRSLKLNEELLSKIKEKIKKYHSEIPQNIERQALVIDGAEVLDNPVGSAPGQLLTVDGKIVILLPGPPRELIPMFNALKDRLRTPDALYQVVLKYYSIPEAVLEDLLKDILYSQNIVEVATMADHVEGVRLRLTTHMKNKEYLDEMVKKILDKTGEHLYGVNDEKMEEVVVRLLKDRKKTLAVAESCTGGMLSSLVVNVPGASEVFIGGVVAYSNDLKKHILGVREDTLKKHGAVSEECVQEMTEGLKKLTGADICVSISGIAGPSGGTPEKPVGTVFIDIFEHEHITMRYNFTGDRNMIRTRSAMMALENLRKYLKGRERVEGGSHHHHHH” reads “soluble”; that for “MGSDKIHHHHHHVLIGLSALSFSYRCGLIGRGTPRAVSHPLDIEGVMALASRAGLQSVEFPLSLLPDLSPGRLSALRERLTLCGLTPVADSDIVDVDTLRAHIPAAAMIGAHVLRVLISPVLEGYRRPFTTDWPAHLADVTDRLRAVIDLAAEHNIILAVENHQDATSADLAAICAAVDSPHIGVCFDAVNCLVVGETPYAALERLGPLIRNVHLADYETYPTTQGWRLVRCALGEGDLDIRRLFHLIEHYAPDVACQIELVSHSARHVRILDDDWWQGYPPCDVREVLPVLRLFAQTMRLRDDDWRTPWERGAGEEQISLYEDQQYATSIAYLRTIGILPRL”, “not soluble”.
The result for “MARLNITFSPQAFEDYKYFQQNDKKMVKKINELLKSIDRNGALEGIGKPEKLKSNLTGYYSRRINHEHRLVYTVDDNHIKIASCKYHY” reads “not soluble”.
As for “MGSDKIHHHHHHMSRTQEKHNRSVSKDVLVVGGGTSGFVAAIAAARNGASVLLLEQRDHLGGTHSGGMVMMIRSMRHMKAPANMEQKKIMMTGYESSFDDEQVVRSIVQEYINRMLEIGSAWGRKDEATARQMFDPEIAKWVIQDMVAEAGVEVWLNTQATDVIMEGNALKGVVIESLRDRVEVHAGITIDTTGDGDIAAAAGAAFEFGSPEDGKCQPASLYFAVGGVQLDKTIAYMRDHANEFGEEYVKTMVGLKEQNKPITMFPFKEKIREALKNGDYPIPYGVETVNPDTLSYIVRPMFRNGKFRYDVTYHNMDMAYNFDATDRVELTKATLAMRDLANKMAKFYRKYVPGYEDSYLSYTAQSVGIRDSRRIVCDYTLTREDVLAGQVFPDGIGRYGSLMDVHDKSGKKSLSLVEVGGHGWFHVPFRSLLPKGIENLMVAGRCISADYDAQGSVRSQAASMVTGQATGTAAALAVQQKRKLRELDVSALQEVLKAQNQVI”, the “soluble on expression in E. coli” value is “not soluble”.
Turning to “MAHHHHHHMKRIVAPRRWSAINRVEHPPLMPKQLLQSVCGGLRWLESKSLAEFLAKRAIEEGFPCTKKQQRIFDARPPSSRPALRKSRLHKKCPARRSGGDVQRTEGSLEAPRTTGASGALVSSGAALALNSSAFDALVPLAKRKRLVSYDVLDCTFGSGFHTGVVLENGRPYTRVVAMDCDVEATVSAREIVDEFGADRFRFYARPMSEAKAMFGERSFDAVMIDPGPSSTQLENPERGFLLNDESDHALDMRYGPTHGLGALEYLNTVPQHALSGALASYELLTPQQSMKLARAIRQRRPFDGAQRVLEAVEEAGNELPEEGWGTQGSRRKTSMSWNFMTSLRCIVNHERHELSEALQNALLLLRTDGRLVVFSRLPWEEKLISTTISQHPHALLSYSEAIPIEDVQEHGHSRHTKMWIVTRTQGSSYVLKNSQTLTGEAVQESSMRWMSGLFAGQTFGFPANNFTFENKDGKDWAAVRRNKNSPPFDSDDDPRG”, the “soluble on expression in E. coli” value is on record as “not soluble”.
On to “MAPAKKVETRSTDGETRRHIMLIMLKEGPVTATQLGQQLNLSATGIRRHLDILLDEGFAEISSVRRVACEKSRGRPAKAFKLTASGRSQFGHEYDSLAAEALATLKESGGEAAVRAFARKRVEKILADVHVPDNIDDNQLAEVATQLVEAFSNNGYAATINNAANGVQICQHHCPISGVAADFPELCEAEHEMIAKILGHHVQPLASIADGHDICTTNIPITPILTPRKNTPTERSGS”, for which the “soluble on expression in E. coli” value is recorded as “not soluble”.
As for “MAEKALATLKELAFLEDPSPVERDAAIQRFEYTFEAFWKALQAYLREKEGLEGASPKGVIRLAREVGLLRDEEARLALGMVDDRSLTVHTYNEPLARAIFRRLPDYARLMEQVLGRLRR”, the “soluble on expression in E. coli” value is given as “soluble”.
Regarding “MASIWVGHRGTVRDYPDFSPSVDAEAIQKAIRGIGTDEKMLISILTERSNAQRQLIVKEYQAAYGKELKDDLKGDLSGHFEHLMVALVTPPAVFDAKQLKKSMKGAGTNEDALIEILTTRTSRQMKDISQAYYTVYKKSLGDDISSETSGDFRKALLTLADGRRDESLKVDEHLAKQDAQILYKAGENRWGTDEDKFTEILCLRSFPQLKLTFDEYRNISQKDIVDSIKGELSGHFEDLLLAIVNCVRNTPAFLAERLHRALKGIGTDEFTLNRIMVSRSEIDLLDIRTEFKKHYGYSLYSAIKSDTSGDYEITLLKICGGDD”, the “soluble on expression in E. coli” value was “soluble”.
The result for “MCFSPEDRKKTDHLLALDGAKERLKLFKADLLDEGSFELAIDGCETVFHTASPVAITVKTDPQVELINPAVNGTINVLRTCTKVSSVKRVILTSSMAAVLAPETKLGPNDVVDETFFTNPSFAEERKQWYVLSKTLAEDAAWRFAKDNEIDLIVLNPGLVTGPILQPTLNFSVAVIVELMKGKNPFNTTHHRFVDVRDVALAHVKALETPSANGRYIIDGPVVTIKDIENVLREFFPDLCIADRNEDITELNSVTFNVCLDKVKSLGIIEFTPTETSLRDTVLSLKEKCLV” reads “soluble”.
On to “SLQHAPLNFVPDAAKVPPTPGQSPNARWSREAIEALFALPFNDLLFQAQQVHRAHFDANAVQLSTLLSIKTGGCPEDCSYCPQSARYDTGVEAEKLMPIDTVLEAAARAKQNGASRFCMGAAWRNPKPHQLDAVADMVRGVKAMGLETCVTLGMLKQEQAQQLKDAGLDYYNHNLDTAPEFYGEIITTRTYQDRLDTLEHVRDAGINVCCGGIVGLGESRHERAGLVAELANMEPYPDSVPINNLVKVEGTPLAGNEALDPFEFVRTIAVARITMPKAMVRLSAGREAMDDALQALCFMAGANSIFYGEKLLTTDNPEADADRKLLARLGMRVEVQDHLHQAEGAQHSHSSHCHIDITPADEG”, for which the “soluble on expression in E. coli” value was “soluble”.
In the case of “FLLPPSTACCTQLYRKPLSDKLLRKVIQVELQEADGDCHLQAFVLHLAQRSICIHPQNPSLSQWFEHQERKLHGTLPKLNFGMLRKMG”, the “soluble on expression in E. coli” value is recorded as “soluble”.
For “MSLSNKIVLTSPDRKTTRLLEKVRKEYDFKIDAYEATFDDAVELIRGKVAHREHWDPIIATGGATLGLLRDNLGRMPWVNIFPTEYDLVIALEQAKKTKKTIGLFNPGQIDTEAIKAVCSAIQIDAHIYRYNSWKEVLVQVEKAYQDGVEVAIGAGEKISSAVERKNIQYVSVTSGEYTIRRAFKYAQLLVDLKRNEKVSHEEGHHHHHH”, the “soluble on expression in E. coli” value was “not soluble”.
As to “MSLANLKVNLYGMEFLNPIMTAAGPGAKDGALCQEAAKGGAGAICTKTISVLPADVPRPCMAKTNSGFLNTELWSELPKEQWIEEEYKKVKETGLPVIVSMGYSAEQIAEVAPLVKPYADAVELSTHYVGTDVAPIVNALKAAKAVLDVPVFMKMSPHTDIQTIAKAVEEAGADGLVMINSFGPCMAIDVNTGYPIMGSKAGYGWLSGAPIRPLAIRCIYEASQVVNIPIIGVGGITCGKDVAEMMMAGASAVQVCTEAILKGPSIYGKIAKELNEFLDENGEGHHHHHH”, the “soluble on expression in E. coli” value is listed as “not soluble”.
